Assay results from PMC12107432 (Nucleic Acids Research, 2025).
Where “and” joins values, the source holds several entries; their conditions need not be identical. Identical values can stand only once. Like-named read-outs stand apart in the source and are kept apart here.

What was measured:
[1] = biological target: YhaM ortholog of Staphylococcus aureus (SaYhaM) (Staphylococcus aureus); experiment: SEC
mass photometry [2] = biological target: the molecule itself; experiment: mass photometry
mass photometry [3] = biological target: the molecule itself; experiment: mass photometry; remark: listed apart in the source
mass photometry [4] = biological target: the molecule itself; experiment: mass photometry; remark: listed apart in the source
YhaM (BsYhaM) = biological target: T1, YhaM (BsYhaM) (Bacillus subtilis (strain DK1042 / NCIB …, UniProt O07521 1-314)); experiment: BLI
T1 sequence: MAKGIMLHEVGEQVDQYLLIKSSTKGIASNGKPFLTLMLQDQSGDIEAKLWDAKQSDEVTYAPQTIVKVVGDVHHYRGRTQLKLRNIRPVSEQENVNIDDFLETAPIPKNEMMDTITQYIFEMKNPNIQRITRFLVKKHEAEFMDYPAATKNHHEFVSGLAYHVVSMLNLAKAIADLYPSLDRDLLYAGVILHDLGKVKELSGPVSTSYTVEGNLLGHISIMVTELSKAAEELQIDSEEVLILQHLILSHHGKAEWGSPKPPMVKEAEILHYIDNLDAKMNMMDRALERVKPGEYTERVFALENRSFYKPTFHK

YhaM H193A/D194A = biological target: T2, YhaM H193A/D194A (Bacillus subtilis, UniProt O07521 1-314, H193A;D194A); experiment: BLI
T2 sequence: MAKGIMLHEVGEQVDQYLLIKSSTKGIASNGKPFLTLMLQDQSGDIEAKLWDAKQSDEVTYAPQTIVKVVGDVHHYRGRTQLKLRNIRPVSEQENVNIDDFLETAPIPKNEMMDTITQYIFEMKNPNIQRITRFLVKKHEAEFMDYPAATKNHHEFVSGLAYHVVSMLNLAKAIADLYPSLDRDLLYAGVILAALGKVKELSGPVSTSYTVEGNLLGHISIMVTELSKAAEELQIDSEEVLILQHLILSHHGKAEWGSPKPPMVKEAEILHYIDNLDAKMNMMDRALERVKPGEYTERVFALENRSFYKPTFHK

YhaM dimers = biological target: T3, YhaM dimers (Bacillus subtilis, UniProt O07521 1-314); experiment: BLI
T3 sequence: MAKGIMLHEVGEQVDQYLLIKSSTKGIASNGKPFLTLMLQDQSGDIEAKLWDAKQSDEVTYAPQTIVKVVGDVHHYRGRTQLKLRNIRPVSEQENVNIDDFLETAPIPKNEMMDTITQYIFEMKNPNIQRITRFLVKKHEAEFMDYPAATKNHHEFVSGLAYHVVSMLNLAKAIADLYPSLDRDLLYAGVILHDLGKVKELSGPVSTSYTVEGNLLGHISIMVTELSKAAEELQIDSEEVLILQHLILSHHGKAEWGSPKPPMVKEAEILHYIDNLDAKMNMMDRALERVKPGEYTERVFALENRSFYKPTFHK

YhaM ortholog of Staphylococcus aureus (SaYhaM) (enzyme)
stoichiometry N [1]: 6

B1: YhaM W51A (Bacillus subtilis), OB domain variant (enzyme, UniProt O07521 1-314, looked up)
chain: MAKGIMLHEVGEQVDQYLLIKSSTKGIASNGKPFLTLMLQDQSGDIEAKLADAKQSDEVTYAPQTIVKVVGDVHHYRGRTQLKLRNIRPVSEQENVNIDDFLETAPIPKNEMMDTITQYIFEMKNPNIQRITRFLVKKHEAEFMDYPAATKNHHEFVSGLAYHVVSMLNLAKAIADLYPSLDRDLLYAGVILHDLGKVKELSGPVSTSYTVEGNLLGHISIMVTELSKAAEELQIDSEEVLILQHLILSHHGKAEWGSPKPPMVKEAEILHYIDNLDAKMNMMDRALERVKPGEYTERVFALENRSFYKPTFHK
stoichiometry N (mass photometry [2]): 2 | stoichiometry N (mass photometry [3]): 6

B2: YhaM H193A/D194A (Bacillus subtilis), HD motif variant (enzyme, UniProt O07521 1-314, looked up)
chain: MAKGIMLHEVGEQVDQYLLIKSSTKGIASNGKPFLTLMLQDQSGDIEAKLWDAKQSDEVTYAPQTIVKVVGDVHHYRGRTQLKLRNIRPVSEQENVNIDDFLETAPIPKNEMMDTITQYIFEMKNPNIQRITRFLVKKHEAEFMDYPAATKNHHEFVSGLAYHVVSMLNLAKAIADLYPSLDRDLLYAGVILAALGKVKELSGPVSTSYTVEGNLLGHISIMVTELSKAAEELQIDSEEVLILQHLILSHHGKAEWGSPKPPMVKEAEILHYIDNLDAKMNMMDRALERVKPGEYTERVFALENRSFYKPTFHK
stoichiometry N (mass photometry [4]): 2 | stoichiometry N (mass photometry [3]): 4 and 6

B3: YhaM Y76A (Bacillus subtilis), OB domain variant (enzyme, UniProt O07521 1-314, looked up)
chain: MAKGIMLHEVGEQVDQYLLIKSSTKGIASNGKPFLTLMLQDQSGDIEAKLWDAKQSDEVTYAPQTIVKVVGDVHHARGRTQLKLRNIRPVSEQENVNIDDFLETAPIPKNEMMDTITQYIFEMKNPNIQRITRFLVKKHEAEFMDYPAATKNHHEFVSGLAYHVVSMLNLAKAIADLYPSLDRDLLYAGVILHDLGKVKELSGPVSTSYTVEGNLLGHISIMVTELSKAAEELQIDSEEVLILQHLILSHHGKAEWGSPKPPMVKEAEILHYIDNLDAKMNMMDRALERVKPGEYTERVFALENRSFYKPTFHK
stoichiometry N (mass photometry [3]): 6

GTTAATTAAGTTTTAACCTTTAAGCTGTAATAGGGAGTTT (ssDNA) [Bli DNA 40-nt]
binding result (YhaM (BsYhaM)): binds | binding result (YhaM H193A/D194A): binds

B4: ssDNA loop (ssDNA)
DNA: TTTTTTTTTTTTTTTTTTTTTTCCCACAACAAGTCCAACGCAAACGGCCACCCCCCCAACAACAATTTTT
binding result (YhaM dimers): binds
